In the Human Domainome abundance scans (Beltran et al. 2025):
± gives the uncertainty stated by the source.

B1: Ankyrin-2, residues 3571 to 3650; numbered along this chain, Q01484 (parent)
chain: ERLAYIADHLGFSWTELARELDFTEEQIHQIRIENPNSLQDQSHALLKYWLERDGKHATDTNLVECLTKINRMDIVHLME

Variants of: B1
Assay: abundance fitness (aPCA) (normalised: wild type 0, dead -1); higher = more abundant; growth selection in yeast, the domain comes from the species named
Conditions: Homo sapiens

| Variant | abundance fitness |
| --- | --- |
| F23V | -0.174 ± 0.078 |
| F23W | -0.442 ± 0.085 |
| F23S | -0.575 ± 0.075 |
| F23Q | -0.912 ± 0.18 |
| F23P | -1.07 ± 0.22 |
| F23C | -0.184 ± 0.11 |
| F23M | -0.021 ± 0.15 |
| F23K | -0.983 ± 0.41 |
| A45H | -0.197 ± 0.15 |
| A45V | 0.101 ± 0.11 |
| L3G | -0.181 ± 0.11 |
| L3S | 0.043 ± 0.069 |
| L3P | -0.215 ± 0.064 |
| L3H | -0.038 ± 0.13 |
| L3W | -0.117 ± 0.05 |
| L3V | 0.005 ± 0.089 |
| N71M | -0.167 ± 0.096 |
| N71V | -0.252 ± 0.057 |
| N71S | -0.028 ± 0.065 |
| N71K | -0.078 ± 0.12 |
| L21A | -0.086 ± 0.061 |
| L21T | -0.412 ± 0.076 |
| L21M | -0.107 ± 0.088 |
| Q40D | 0.117 ± 0.25 |

| Variant | abundance fitness |
| --- | --- |
| Q40C | -0.16 ± 0.13 |
| Q40P | -0.045 ± 0.097 |
| Q40R | -0.07 ± 0.08 |
| E20S | -0.076 ± 0.097 |
| E20T | -0.025 ± 0.072 |
| E20V | -0.003 ± 0.066 |
| E20A | -0.118 ± 0.11 |
| P36V | -0.14 ± 0.066 |
| P36W | -0.074 ± 0.067 |
| P36L | -0.081 ± 0.061 |
| P36D | -0.031 ± 0.16 |
| P36K | -0.125 ± 0.1 |
| Q27P | -0.675 ± 0.097 |
| Q27L | -0.039 ± 0.066 |
| Q27H | 0.101 ± 0.14 |
| Q27A | -0.116 ± 0.081 |
| N37H | -0.021 ± 0.17 |
| N37A | 0.043 ± 0.074 |
| N37R | -0.068 ± 0.052 |
| N37Y | -0.171 ± 0.15 |
| N37I | -0.01 ± 0.17 |
| R53W | 0.002 ± 0.079 |
| R53M | -0.109 ± 0.098 |
| R53V | -0.067 ± 0.07 |

| Variant | abundance fitness |
| --- | --- |
| R53N | -0.144 ± 0.17 |
| I33T | -0.022 ± 0.096 |
| I33E | 0.039 ± 0.082 |
| I33A | -0.034 ± 0.07 |
| I33G | -0.047 ± 0.066 |
| I33Q | 0.003 ± 0.13 |
| K48Y | -0.093 ± 0.12 |
| K48R | 0.01 ± 0.056 |
| K48V | -0.076 ± 0.092 |
| K48F | -0.053 ± 0.15 |
| K48T | 0.04 ± 0.058 |
| K48S | -0.094 ± 0.055 |
| K48A | -0.063 ± 0.062 |
| H9K | -0.232 ± 0.34 |
| H9R | -0.032 ± 0.22 |
| A58C | -0.026 ± 0.13 |
| A58V | -0.018 ± 0.052 |
| A58S | -0.193 ± 0.076 |
| L63K | -0.677 ± 0.32 |
| L63Y | -0.139 ± 0.15 |
| L63F | -0.143 ± 0.12 |
| L63Q | -0.885 ± 0.2 |
| L63I | 0.07 ± 0.11 |
| L63W | -0.205 ± 0.13 |

| Variant | abundance fitness |
| --- | --- |
| V64Q | -0.065 ± 0.11 |
| V64I | 0.009 ± 0.063 |
| V64S | -0.011 ± 0.055 |
| V64R | 0.01 ± 0.076 |
| V64D | -0.206 ± 0.12 |
| V64Y | -0.041 ± 0.14 |
| V64P | -0.266 ± 0.076 |
| V64N | -0.369 ± 0.28 |
| L51F | 0.037 ± 0.17 |
| L51Y | 0.031 ± 0.091 |
| L51S | -0.107 ± 0.075 |
| L51I | -0.015 ± 0.2 |
| L51A | -0.165 ± 0.1 |
| L51H | -0.034 ± 0.28 |
| H57P | 0.009 ± 0.067 |
| H57D | -0.061 ± 0.11 |
| H57K | 0.056 ± 0.16 |
| H57V | 0 ± 0.092 |
| H57F | -0.107 ± 0.084 |
| H57S | 0.06 ± 0.058 |
| T59V | -0.106 ± 0.071 |
| T59Y | 0.121 ± 0.13 |
| T59R | -0.087 ± 0.047 |
| T59D | -0.103 ± 0.12 |

| Variant | abundance fitness |
| --- | --- |
| D54N | -0.033 ± 0.13 |
| D54A | -0.022 ± 0.069 |
| D54R | -0.073 ± 0.063 |
| D74R | -0.707 ± 0.11 |
| D74H | -0.563 ± 0.15 |
| D74W | -0.573 ± 0.17 |
| D74V | -0.682 ± 0.11 |
| E25L | -0.062 ± 0.057 |
| E25D | 0.016 ± 0.15 |
| E25R | -0.096 ± 0.062 |
| E25K | 0.15 ± 0.24 |
| G11Q | -0.006 ± 0.079 |
| G11N | 0.336 ± 0.39 |
| G11S | 0.015 ± 0.054 |
| G11K | -0.054 ± 0.13 |
| G11C | -0.106 ± 0.092 |
| G11H | -0.111 ± 0.15 |
| E65D | 0.193 ± 0.21 |
| E65M | -0.243 ± 0.096 |
| E65C | -0.147 ± 0.11 |
| E65Y | 0.097 ± 0.12 |
| E65G | 0.014 ± 0.048 |
| E65L | -0.072 ± 0.058 |
| G55S | -0.045 ± 0.036 |

| Variant | abundance fitness |
| --- | --- |
| G55P | -0.035 ± 0.036 |
| G55T | -0.026 ± 0.037 |
| G55H | -0.041 ± 0.072 |
| E26I | -0.045 ± 0.14 |
| E26N | -0.033 ± 0.11 |
| E26H | 0.039 ± 0.13 |
| E26R | -0.068 ± 0.044 |
| E26A | -0.087 ± 0.068 |
| E26L | -0.057 ± 0.059 |
| E26T | -0.027 ± 0.066 |
| E26Y | -0.118 ± 0.14 |
| E26Q | -0.129 ± 0.17 |
| F12M | 0.028 ± 0.16 |
| F12K | -0.143 ± 0.14 |
| F12H | -0.128 ± 0.2 |
| F12C | -0.04 ± 0.13 |
| F12E | -0.191 ± 0.15 |
| F12V | -0.045 ± 0.076 |
| T68S | -0.147 ± 0.087 |
| T68V | -0.001 ± 0.08 |
| T68A | -0.057 ± 0.13 |
| L10Q | -0.791 ± 0.28 |
| L10C | -0.184 ± 0.11 |
| L10M | -0.205 ± 0.11 |

| Variant | abundance fitness |
| --- | --- |
| L10Y | -0.464 ± 0.14 |
| V76G | -0.216 ± 0.046 |
| V76Q | -0.107 ± 0.16 |
| V76L | -0.081 ± 0.091 |
| V76W | -0.05 ± 0.11 |
| V76K | -0.467 ± 0.2 |
| V76I | 0.04 ± 0.088 |
| V76F | -0.102 ± 0.11 |
| V76A | -0.091 ± 0.16 |
| V76S | -0.219 ± 0.1 |
| I6W | -0.485 ± 0.22 |
| Y49W | -0.117 ± 0.12 |
| Y49M | 0.059 ± 0.1 |
| Y49R | -0.129 ± 0.056 |
| Y49I | -0.009 ± 0.13 |
| Y49F | 0.02 ± 0.15 |
| Y49L | 0.017 ± 0.071 |
| I28R | -0.22 ± 0.056 |
| I28N | -0.301 ± 0.14 |
| I28G | -0.634 ± 0.064 |
| D60E | -0.041 ± 0.08 |
| D60P | -0.069 ± 0.058 |
| D60S | -0.105 ± 0.05 |
